The text below walks through data of the DeepSol protein solubility set.

The nature of the data set: soluble on expression in E. coli; label from the status in PepcDB or PDB records.
Regarding “MSLKDYRLFLIDLDGTIYRGKETIESGVRFVKRLDEAGLDYLFLTNNTTRTPQMVADKLAGHGVKTDVSKIYTPSMATASYILEKEAKRPIGVYIIGQIGLWKEILDRPEFYYDEENPDYVIVGMDTDLTYHKLMVATRCIHRGAVFIGTNSDQNLPVGKELRPGNGSICAALEVASGQKPLFIGKPEAIIVNRALDLAGVKAEEALIVGDNYPTDIMAGINSGVDTLLTLTGVTQKADLAGLTPPTYLVNDLDEFSEGHHHHHH”, the “soluble on expression in E. coli” value is given as “soluble”. For “MRGSHHHHHHGIQMVSIAINGFGRIGRLVLRIALERKNIDVVAINDPFISVDYAAYMFKYDSTHGKYKGEVSHDGSNLIINGKKVAVFQEKDPATLPWGKLGVDIAVDSTGVFKELDSAQKHIDAGAKKVVITAPSKTAPMFVVGVNEDKYNGEKIVSNASCTTNCLAPIAKIINDEFGIEEGLMTTVHSITATQKTVDGPSHKDWRGGRTASGNIIPSSTGAAKAVGKVLPELQGKLTGMAFRVPTTDVSVVDLTVKLVKAATYDEIKAAVKKVSEGKLKDVVGYTEDAVVSSDFLGDTHSTIFDAAAGIQLSPKFVKLVAWYDNEYGYSTRVVDLVEHVA” the value was “soluble”; for “MTPTPLHSITPFSMLDFPSMLSCILWFSGCNLACSYCYNPEFLKESGKIDLEGLLSFLRSRVGLLEGVVFSGGEATLFAGLPLWMEEVRSLGFKIKLDTNGTNPAMLKELLQKGYLDYVAMDFKGKEERFGMITGREFYGRFLESLEILLSSSIPFEIRTTVHSYLLQEEDIAEMAALLKERG”, “not soluble”.

Regarding “GPGSMFRAVYSNPAANVPASNCMTDGFPLLPPQRPHSSGSQLMRGCPLPWNDGRTLMYGVPAKNEASLQQVSYSRTLGQRWSSGSADNAAQCAAATHSTVCFASCASGANGSAGGSPVLLQPAMGVPAFVTDNQQLPSMVAQSSPTVSRLTSGMCSTSEGSATFGASTTSATSSTVGNCAATGTAATTNGSMAHTGTSPALPGFQMSVPLPTSAMTAVAAPPQQPQTCFWLSHTTGALTPIRKEDMMTISDTSASTNTHSYAMPPPPTMPSQPSSASATSVPTYLMAPQVSSFGGAMVQAFSELLSGSTAFSVPALPLPQPPRPPKTLNGLQYHLGELYEGFVKRYNPNRGFGFLTATTHVTVVNDGSNSDSATGTPIASLNNTTTAVPTTGEAETPKEYRTPVHLGDIFVHQSSMQMEGFRTLPVGGRVRFCIGYKDGQQTLQAVNVELLPQVLPPNVEMASSP”, the “soluble on expression in E. coli” value is on record as “not soluble”. For “MTPLERYQADLKRPDFFHDSAQENAVRHLQRLYEDLVAAHDSKPGLFGKLFGKKEPTLVKGLYFWGGVGRGKTYLVDTFFEALPFQDKVRTHFHRFMKRVHEEMKTLKGERNPLTIIAKRFSDEARVICFDEFFVSDITDAMILGTLMEELFKNGVTLVATSNIVPDGLYKDGLQRARFLPAIALIKQNTDIVNVDSGVDYRLRHLEQAELFHFPLNDAAQESMRKSFKALTPDCAETVENDVLMIENREIRALRTCDDVAWFDFRELCDGPRSQNDYIELGKIFHAVLLSGVEQMDVSTDDIARRFINMVDEFYDRNVKLIISAEVELKDLYTGGRLMFEFQRTLSRLLEMQSHEFLSRAHRP” the value was “not soluble”. For “MQKSSLISHRFSFCKVCGGKANGNHFGIQSCRACAAFFRRAANSKWSSMKCTTFGCADMLVPCKPCRLKRCQEQGMSTTNFQFDRDALKRLLVPKSVEKFVGRPESVIFCDMTESTSKTFIDIRPLIEKTSNILKNGAEGPIFGRNQLQKLANGFENYTNEISVKMIKKIGKSETADCWEYYITTTAKWLNYFNGFKLLSHELQVGKYVFFIEIFSK” the value was “not soluble”; for “MAGQVVVNDHLADKAGLQVPVEAEIRLKGEDIPFVSRGGLKLARALEEFGIDVADMTAIDVGASTGGFTDCLLQRGARKVYAVDVGYGQLAWKLRQDSRVVNLEKTNIRYLEPGALPETPGLAVIDASFISLDKVLPSTLRLIGEEGVIVALIKPQFEVGRGEVGKGGVVRDEEKHRRVIADVVALAEGLGLMVLGVTESPILGPKGNREFLIHLKKAVGETPPHNR”, “not soluble”; for “MAKSSSLNVRVVEGRALPAKDVSGSSDPYCLVKVDDEVVARTATVWRSLGPFWGEEYTVHLPLDFHQLAFYVLDEDTVGHDDIIGKISLSREAITADPRGIDSWINLSRVDPDAEVQGEICLSVQMLEDGQGRCLRCHVLQARDLAPRDISGTSDPFARVFWGSQSLETSTIKKTRFPHWDEVLELREMPGAPSPLRVELWDWDMVGKNDFLGMVEFSPKTLQQKPPKGWFRLLPFPRAEEDSGGNLGALRVKVRLIEDRVLPSQCYQPLMELLMESVQGPAEEDTASPLALLEELTLGDCRQDLATKLVKLFLGRGLAGHFLDYLTRREVARTMDPNTLFRSNSLASKSMEQFMKLVGMPYLHEVLKPVISRVFEEKKYMELDPCKMDLGRTRRISFKGALSEEQMRETSLGLLTGYLGPIVDAIVGSVGRCPPAMRLAFKQLHRRVEERFPQAEHQQDVKYLAISGFLFLRFFAPAILTPKLFDLRDQHADPQTSRSLLLLAKAVQSIGNLGQQLGQGKELWMAPLHPFLLQCVSRVRDFLDRLVDVDGDEEAGVPARALFPPSAIVREGYLLKRKEEPAGLATRFAFKKRYVWLSGETLSFSKSPEWQMCHSIPVSHIRAVERVDEGAFQLPHVMQVVTQDGTGALHTTYLQCKNVNELNQWLSALRKASAPNPNKLAACHPGAFRSARWTCCLQAERSAAGCSRTHSAVTLGDWSDPLDPDAEAQTVYRQLLLGRDQLRLKLLEDSNMDTTLEADTGACPEVLARQRAATARLLEVLADLDRAHEEFQQQERGKAALGPLGP”, “soluble”. For “MSNSLEERLRANSSAFDGLLALIPAKYYYDEKSQEQWKAKKKTKEQSKNDKLKKLDPEQRDDETSSTLEVMKKKEKDAKPVVLPGEKFKHMKMQKQKEATSKVEGDSDLNVEVNDPMIIAPDEDEEEEEDIKVIFDDEGNEIPLESKKDTTEPDRSVEKKSITEEEKLQRKKNLEALRSKLQAKISDMKSKRKAPGSREAILAQRKRKEELKKRKRLESEQEQDQDEIASDSDMEDIDSDLENNSKKRFKKGKKDSEINADGVMFQNIIFDDGARATSDLQRLRKAGRTKGPAKNDVKSHLKLLEAKKNKMEAKDELEQIKQKEKEKWQKAMLQAEGIKIRDDEKLLRKAIKRKEAQKRKSAIEWSERKRVVEDTISERQKRREENLRIRKDNKGKKRNKQEKMKRKYVGSAVPKKRAGFEGRLKTGKKKGGPK” the value was “not soluble”. As to “MSIDKSPREHWASHQERGSFMLMKLTAWGMRVLGRRLLTPVQYGIVLYFFVFGRRARHSIWEYQQRLADWSARPELRPSQRRVFGQFMAFAEALLDKLDVWNGRLGIEQIEIIDPALLRQSLRGARGQMLVGAHLGNLEVCRALAELGEKITMNVLVHTKHAERFNRLLGEAGATNLRLIQVSELDPAIMLQLSQRLDEGEWLAIAGDRVALHGGRNVRVDFLGQPATFPQGPWLLAGLLKCPVNLFFCLKGPKGYRVILEPFADAIEWRRSDRAQVIAHWATRYAERLGHYCLEAPQQWFNFYPFWKSDDESSS”, the “soluble on expression in E. coli” value is reported as “not soluble”. For “MTQEYQLRILPEIAANEQRLKEYISKEKGINLRNITATRILKRSIDARQRTIFVNLKVRAYINEMPKEDEFERTIYNNVEGKPQVIVVGAGPGGLFAALRLIELGLRPIIVERGKDVRERKKDLAQISREHTVDPESNYSFGEGGAGAYSDGKLYTRSKKRGNIDKILNVFCQHGASAAILADAHPHIGTDKLPRVIENMRNTIIECGGEVHFQTRMDALIIENNEIKGIETNTGKTFLGPVILATGHSARDVYRWLAANGVTIEAKGIAVGVRLEHPAMLIDQIQYHNKNGRGKYLPAAEYSFVTQAEGRGVYSFCMCPGGFIVPAASGPEQVVVNGMSPSNRGSRWSNSGMVVEIQPEDFISGELKMESGELAAQQNAQLLAINPLLSNSQLSTLKTQLTPLHFQEELERQCWLQGGRRQTAPAQRMLDFTRKKLSFDLPESSYSPGLISSPLHFWMPDFISKRLSLGFQQFGRTSHGFLTNEAVMIGVETRTSSPVRIVRDKETLQHVTVRGLFPCGEGAGYAGGIVSAGVDGERCAEAVANYINHLEHHHHHH” the value was “not soluble”.

For the sequence “MGSDKIHHHHHHMDIKQIRYFIAIVENHFNLSQAAELLYVSQPTLSMMINDFEKRENVKLFKRKRGRIIGLTYLGDNYYKDAQKVLSLYDDMFLKLHDHSKGLKGSINIGIPPLILSVVFSEVMPKLILENPGIQFNVKEIGAYQLKNELLVGNVDVAVLLSPTGIADNLVETYEIQRSELSVCLSPRHRLASKKVIQWEDLTDEQLALFDPSFMVHHLVLEACERHQVRPNIILTSSSWDFMLNSTKINHNVLTICPKPITELYQLKDIKCIPMERPISWRVVLTRLRKKSYSEIEAYIMDDLLQSFFK”, the “soluble on expression in E. coli” value was “not soluble”. For “GSHMQQWVDCEFTGRDFRDEDLSRLHTERAMFSECDFSGVNLAESQHRGSAFRNCTFERTTLWHSTFAQCSMLGSVFVACRLRPLTLDDVDFTLAVLGGNDLRGLNLTGCRLRETSLVDTDLRKCVLRGADLSGARTTGARLDDADLRGATVDPVLWRTASLVGARVDVDQAVAFAAAHGLCLAGG” the value was “soluble”. For “MLISKVIKKQFAQETIENVHIAKGTAMFQGVRLTVRCFVIDGVLIDTGAKSMENEFTSFFQQQDIDQVVITHFHEDHTGCAAFLQRKMGLPIYMNELMIHYCQQKADYPLYRKVFWGKRDPFTAKPIGATFSSRSATWDVIPTPGHSIDHVAFLNRETGQLFSGDLYCQEKTKVILREENIPAIITSLQHVLTYDFGDVFCAHAGYLPNGREALQRKLDYLLELQGTIIDLYEKGTPPKQIQALLFPKKYPIVFFSGGEWDSLHIIRSVIQEYETKQAG” the value was “not soluble”; for “MDQKSSSPQPAAQAPETKQAFPRKFVLAALEQSSDDAGWANLGNFGNYLNKLQPDFDSRLYGYKKLSDLVKARTDLFVTEERQVPGSTQKALYLRAKLEHHHHHH”, “soluble”. For “MSLNQASLERNELHNTIWKVANELRGSVDGWDFKQYVLGILFYRYISENMTHYINKEERKRDPSFDYAKLSDEKAERGRKHLIEQKGFFIPPSALFCNALKNACHNEDLNVTLQNIFNEIEKSSLGTPSEENVKGLFADLDVNSNKLGSSHQNRVEKLTKILEAIGGMQLGDYLKSGIDVFGDAYEYLMAMYASNAGKSGGEFFTPQEVSELLAKITLHGQESVNKVYDPCCGSGSLLLQFSKVLGDKNVSKGYFGQEINLTTYNLCRINMFLHDINYSKFHIAHGDTLLDPKHEDDEPFDAIVSNPPYSTKWVGDSNPILINDERFSPAGVLAPKNAADLAFTMHMLSYLSNSGTAAIVEFPGVLYRGNAEAKIREYLVKENVIDCVIALPDNLFFGTSIATCILVLKKNKQDDTTLFIDASKEFVKEGKKNKLKERNREKILQTYIERKEIKHFCALANIEKIKENDYNLSVNRYVEQEDTKEAIDIKALNSEIAQIVEKQSALRNRLESIIKELEGGQNEGHHHHHH” the value was “soluble”; for “MGSSHHHHHHGKTIFVIVPTNEEQVAFLEALAKQDELNFDWQNPPTEPGQPVVILIPSDMVEWFLEMLKAKGIPFTVYVEEGGSENLYFQGGGGGGMPPPLPHRRATRACALVAAVALVLVLPTSRARTVGMRSMSAYTEAQQLHTRKFLDGFVQSMPDLHNIWTGDDFCAWKGVTCLRDGVSVSATNWVQLAVPPGRLPEVSSADVDVSQVFVTSISVRANGRNLSGTLPASWGLLQNLRKVRLESNSLTGSLPPEWSGLRSLRELYLSNNNLTGTLPASWGESMKSLAILSLDRNALAGTLPPEWGRMKSMQALVLESNQLSGTLPAEWRFMRAASTLMIGRNYLSGTLPHEWAEMSVMEWMDLHSNRLTGWLPAAWATMTLLNTLLLFDNGFTGTLPTEWARLEFLEELRMQDNVLVGTLPASWSAMVLMQVLDISENTLSGTLPVLWSSMQSLDTLSIRDNQLSGSLPIEWRTLPKIMHLHLEGNALCGCLPLNWTSRYVAVEVDEAVTSVNCATENACNDVNLDSISDKISSSCSSSTSPNGGRRR”, “not soluble”.
